This note sets out measurements from patent US6670328 (INSTITUT PASTEUR DE LILLE, dated 2003).

A word on the koff: it is the rate constant with which the complex falls apart. Read a low koff as slow dissociation. A word on the kon: it is the rate constant with which the complex forms. Read a low kon as slower complex formation. Broadly, the Kd is the equilibrium constant for the complex coming apart.

In assay [1] the target is T1, LFA-1 (heterodimeric CD11a/CD18) (human, UniProt P20701 26-1170; P05107 23-769).
T1 construct: whole, on cells; Endogenous LFA-1 on Jurkat cells (and on human PBMC) in the cell assays; In the BIAcore assay and the co-immunoprecipitations it was the whole heterodimer from octylthioglucoside lysates of Jurkat cells; also called LFA-1 molecule; LFA-1 counter receptor
T1 sequence (P20701 26-1170, chain 1 of 2): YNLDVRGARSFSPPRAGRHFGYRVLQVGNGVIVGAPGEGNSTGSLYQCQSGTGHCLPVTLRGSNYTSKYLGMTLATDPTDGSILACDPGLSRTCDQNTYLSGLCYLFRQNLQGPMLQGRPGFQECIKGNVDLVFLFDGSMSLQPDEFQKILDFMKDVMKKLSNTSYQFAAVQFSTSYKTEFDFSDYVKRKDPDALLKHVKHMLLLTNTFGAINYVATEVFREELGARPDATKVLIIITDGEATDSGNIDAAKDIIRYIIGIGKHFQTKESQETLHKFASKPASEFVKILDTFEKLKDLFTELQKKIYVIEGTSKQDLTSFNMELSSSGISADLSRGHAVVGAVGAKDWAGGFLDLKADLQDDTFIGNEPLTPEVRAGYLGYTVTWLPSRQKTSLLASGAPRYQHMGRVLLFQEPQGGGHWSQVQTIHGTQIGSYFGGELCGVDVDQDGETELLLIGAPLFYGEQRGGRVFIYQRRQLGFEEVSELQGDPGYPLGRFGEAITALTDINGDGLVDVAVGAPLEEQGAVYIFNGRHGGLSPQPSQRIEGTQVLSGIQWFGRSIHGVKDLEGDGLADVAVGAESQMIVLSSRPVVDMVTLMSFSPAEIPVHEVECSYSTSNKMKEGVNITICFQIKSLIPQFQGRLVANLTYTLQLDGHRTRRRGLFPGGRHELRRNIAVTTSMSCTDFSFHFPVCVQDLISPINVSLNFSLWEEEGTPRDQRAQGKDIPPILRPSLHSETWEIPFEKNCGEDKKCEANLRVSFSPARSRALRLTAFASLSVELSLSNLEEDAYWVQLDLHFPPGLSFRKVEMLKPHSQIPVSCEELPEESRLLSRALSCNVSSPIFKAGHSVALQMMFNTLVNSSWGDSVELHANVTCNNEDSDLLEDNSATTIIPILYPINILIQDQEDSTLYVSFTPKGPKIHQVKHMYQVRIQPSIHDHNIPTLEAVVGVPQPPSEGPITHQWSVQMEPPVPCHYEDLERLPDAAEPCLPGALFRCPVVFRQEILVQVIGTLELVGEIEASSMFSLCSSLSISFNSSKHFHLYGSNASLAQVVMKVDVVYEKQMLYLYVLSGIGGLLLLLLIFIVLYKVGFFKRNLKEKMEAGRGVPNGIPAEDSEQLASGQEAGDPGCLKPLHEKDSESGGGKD
T1 sequence (P05107 23-769, chain 2 of 2): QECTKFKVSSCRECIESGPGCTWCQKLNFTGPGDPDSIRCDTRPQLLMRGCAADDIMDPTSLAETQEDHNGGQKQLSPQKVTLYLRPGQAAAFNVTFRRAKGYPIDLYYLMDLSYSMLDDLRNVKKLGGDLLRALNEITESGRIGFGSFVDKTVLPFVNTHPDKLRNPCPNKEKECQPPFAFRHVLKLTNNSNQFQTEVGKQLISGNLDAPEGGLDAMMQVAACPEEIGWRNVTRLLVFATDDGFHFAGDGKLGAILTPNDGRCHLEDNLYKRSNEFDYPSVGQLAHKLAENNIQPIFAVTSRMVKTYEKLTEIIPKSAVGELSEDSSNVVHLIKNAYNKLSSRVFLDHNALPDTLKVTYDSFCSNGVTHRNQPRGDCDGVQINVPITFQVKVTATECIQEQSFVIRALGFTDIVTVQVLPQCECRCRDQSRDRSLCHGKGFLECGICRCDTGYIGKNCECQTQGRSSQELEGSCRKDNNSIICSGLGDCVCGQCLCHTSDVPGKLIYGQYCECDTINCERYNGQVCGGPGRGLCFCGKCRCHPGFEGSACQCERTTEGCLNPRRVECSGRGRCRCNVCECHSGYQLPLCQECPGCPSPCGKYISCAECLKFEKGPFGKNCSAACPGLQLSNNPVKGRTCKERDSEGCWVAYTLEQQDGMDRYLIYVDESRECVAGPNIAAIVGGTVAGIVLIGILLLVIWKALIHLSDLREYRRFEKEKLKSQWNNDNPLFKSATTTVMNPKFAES
Put plainly: competition on Jurkat cells at 4 C; HI111 at 1 microg/mL against 35S-labelled 3D-ICAM-1/Fc.

The target in the next assay is T2, CD44 on Jurkat cells (human, UniProt P16070 21-742).
T2 construct: whole, on cells
T2 sequence (P16070 21-742): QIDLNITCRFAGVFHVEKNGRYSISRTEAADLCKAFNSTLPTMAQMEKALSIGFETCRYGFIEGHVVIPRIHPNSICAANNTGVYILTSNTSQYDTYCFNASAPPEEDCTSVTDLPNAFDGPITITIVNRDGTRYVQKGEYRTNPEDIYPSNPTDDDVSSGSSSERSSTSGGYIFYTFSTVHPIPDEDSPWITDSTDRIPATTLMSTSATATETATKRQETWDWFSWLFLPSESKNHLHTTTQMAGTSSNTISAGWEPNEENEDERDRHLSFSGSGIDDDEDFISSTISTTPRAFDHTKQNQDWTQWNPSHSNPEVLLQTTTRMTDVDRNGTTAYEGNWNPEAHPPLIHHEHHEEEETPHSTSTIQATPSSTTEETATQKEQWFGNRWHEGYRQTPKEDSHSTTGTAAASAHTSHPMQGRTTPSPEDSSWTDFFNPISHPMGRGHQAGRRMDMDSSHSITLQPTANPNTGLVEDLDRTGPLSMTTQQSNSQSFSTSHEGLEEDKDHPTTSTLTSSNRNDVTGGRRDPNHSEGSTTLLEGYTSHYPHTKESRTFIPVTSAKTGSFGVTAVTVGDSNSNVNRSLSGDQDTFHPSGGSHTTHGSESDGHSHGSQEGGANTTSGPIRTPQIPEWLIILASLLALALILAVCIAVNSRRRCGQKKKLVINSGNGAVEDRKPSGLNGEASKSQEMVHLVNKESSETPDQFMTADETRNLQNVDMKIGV
Put plainly: co-immunoprecipitation with anti-CD44 mAb from lysates of Jurkat cells incubated with 300 ng/mL ESM-1; ESM-1 ELISA of eluate. Here is the method:
(§1) FIGS. 17A–B: An anti-CD11a mAb coimmunoprecipitates ESM-1 with LFA-1 and increases ESM-1 binding to Jurkat cells. A. Coimmunoprecipitation of ESM-1 with LFA-1 : Jurkat cells were incubated with ESM-1 for 1 hour at 4° C. and immunoprecipitations were done with different mAbs according to the procedure previously described (none, anti-ESM-1 (MEC15), anti-CD3, anti-CD11a (1), ie clone HI111, anti-CD11a (2), ie clone G43-25B anti-CD18, anti-CD44, anti-CD2). Beads were washed and eluted. ESM-1 contents from eluates were analyzed by a specific ELISA. B. Activation of the binding of ESM-1 by an anti-CD11a mAb: Jurkat cells were firstly incubated in binding medium with different mAbs (none, anti-CD11a (1), anti-CD11a (2), IgG control) for 1 h at room temperature and secondly with ESM-1 for 1 h at 4° C. Cells were washed and lysed. ESM-1 was quantified by a specific ELISA in lysates (n=5).

Another assay addresses T3, CD2 on Jurkat cells (human, UniProt P06729 25-351).
T3 construct: whole, on cells
T3 sequence (looked up): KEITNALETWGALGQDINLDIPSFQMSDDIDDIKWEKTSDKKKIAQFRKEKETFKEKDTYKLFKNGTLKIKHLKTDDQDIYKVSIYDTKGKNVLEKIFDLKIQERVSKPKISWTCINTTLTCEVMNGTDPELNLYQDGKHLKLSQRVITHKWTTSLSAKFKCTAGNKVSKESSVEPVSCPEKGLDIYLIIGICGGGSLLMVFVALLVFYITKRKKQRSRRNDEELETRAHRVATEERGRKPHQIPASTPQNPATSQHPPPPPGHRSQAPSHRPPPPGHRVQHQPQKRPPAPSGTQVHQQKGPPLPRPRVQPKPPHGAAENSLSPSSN
The assay is described as follows: co-immunoprecipitation with anti-CD2 mAb from lysates of Jurkat cells incubated with 300 ng/mL ESM-1; ESM-1 ELISA of eluate. Here is the method: as §1

The target in assay [2] is T1, LFA-1 (heterodimeric CD11a/CD18). The assay is described as follows: BIAcore, purified ESM-1 (5 concentrations, 50 to 300 nM) over LFA-1 from Jurkat lysate captured by immobilized HI111, 25 C, PBS with 1 mM MgCl2 and 1 mM MnCl2. Here is the method:
LFA-1 molecules from the Jurkat lysates could only be fixed by immuno-affinity procedure. 200 millions of Jurkat cells were lysed in 2 mL of lysis buffer (PBS, 1 mM MgCl2, 1 mM MnCl2, complete anti-proteases cocktail EDTA-free and 5 mM octylthioglucoside) for 30 min at 4° C. After removal of insoluble material by centrifugation and incubation in a sonication bath, the lysate was injected at a flow rate of 5 microL/min for 30 min at 25° C. in order to immobilize approximatively 1500 RU of LFA-1 molecules. Next, CD11a mAb (G43-25B), CD18 mAb and purified ESM-1 were diluted in running buffer (PBS, 1 mM MgCl2, 1 mM MnCl2) and injected at a flow rate of 5 microL/min for 5 min at 25° C. The association rate constant (ka) and the dissociation rate constant (kd) were fitted calculated according to the BIAevaluation software version 3.1 provided by the manufacturer. The affinity constant was calculated from the equation Kd=kd/ka.
To better define the interaction between LFA-1 and ESM-1, a real-time observation by BIAcore analysis was carried out. Sensor chip was filled with detergent lysates of Jurkat cells in order to capture functional LFA-1 molecules. […] The binding of heterodimeric LFA-1 to mAb coated chip was consistently detected. […] No interaction was detected between the mAb coated surface or control surface and ESM-1 at the highest concentration used in this experiment (data not shown).
A general note: Surface plasmon resonance follows binding to a sensor surface in real time, without labels.

Assay [3] shares this target. Put plainly: BIAcore, from the ratio of the rate constants; ESM-1 over LFA-1 captured by immobilized HI111. Here is the method:
The affinity constant was calculated from the equation Kd=kd/ka.
To better define the interaction between LFA-1 and ESM-1, a real-time observation by BIAcore analysis was carried out. Sensor chip was filled with detergent lysates of Jurkat cells in order to capture functional LFA-1 molecules. Specific binding of the heterodimeric form of LFA-1 to the anti-CD11a mAb coupled censorship was observed. In this assay, anti-CD11a mAb (HI111) was immobilized on the surface of the carboxymethyl 5 sensor chip as described in Materials and Methods. The binding of heterodimeric LFA-1 to mAb coated chip was consistently detected. The presence of both CD11a chain and CD18 chain was checked by injecting either another anti-CD11a mAb (G43-25B), or an anti-CD18 mAb in the LFA-1 captured channel. As reported in FIG. 18A, LFA-1 was strongly captured under its heterodimeric form, which was essential to keep functionality of LFA-1. Next, we have also examined the interaction of LFA-1 and purified human ESM-1 by BIAcore biosensor. […] No interaction was detected between the mAb coated surface or control surface and ESM-1 at the highest concentration used in this experiment (data not shown). Purified ESM-1 was then injected at indicated concentrations to the LFA-1 captured surface, and the response (in resonance units) versus time (in seconds) was recorded. […]

The target of assay [4] is T4, 3D-ICAM-1/Fc chimeric protein (three first extracellular domains of ICAM-1 fused to the Fc fragment of human … (human, UniProt P05362 28-311, limits assumed, 35S methionine metabolic label in the ICAM-1 binding assays)).
T4 construct: domain: three first extracellular domains of ICAM-1; Expressed in 293 cells and purified on an anti-human Fc agarose column; also called soluble ICAM-1; soluble ICAM-1/Fc; not shown: Fc fragment of human IgG1
T4 sequence (P05362 28-311 limits assumed, stated change not applied): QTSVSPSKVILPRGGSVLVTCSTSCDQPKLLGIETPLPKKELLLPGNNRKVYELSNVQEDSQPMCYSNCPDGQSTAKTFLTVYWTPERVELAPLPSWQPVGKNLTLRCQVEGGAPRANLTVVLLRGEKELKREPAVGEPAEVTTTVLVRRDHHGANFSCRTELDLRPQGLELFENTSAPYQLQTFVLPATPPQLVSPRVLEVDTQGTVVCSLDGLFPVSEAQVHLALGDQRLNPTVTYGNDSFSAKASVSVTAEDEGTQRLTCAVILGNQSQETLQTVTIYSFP
Put plainly: coprecipitation.

Molecule anti-CD11a mAb clone HI111 (antibody) yielded a labelled ICAM-1 still bound (cpm) in assay [1] of 837 cpm.

B1: secreted ESM-1 protein (Endothelial Cell Specific Molecule-1), purified wild-type form (ligand)
chain: WSNNYAVDCPQHCDSSECKSSPRCKRTVLDDCGCCRVCAAGRGETCYRTVSGMDGMKCGPCLRCQPSNCEDPFGEEFGICKDCPYGTFGMDCRETCNCQSCICDRGTGKCLKFPFFQYSVTKSSNRFVSLTEHDMASGDGNIVREEVVKENAAGSPVMRKWLNPR
notes: The secreted form runs at about 50 kD and is described as glycosylated (a proteoglycan); also called ESM/WT; extracellular ESM-1
In the case of B1, the binding result (with CD44 on Jurkat cells; with CD2 on Jurkat cells; in assay [4]) was “no binding” each time. Also, the koff in assay [2] came to 0.000825 s⁻¹. In addition, the kon in assay [2] worked out at 44100 M⁻¹ s⁻¹. For the same molecule, the Kd in assay [3] was 18.7 nM.
